Measured values from patent US20250250357A1 (NANJING ZAIMING PHARMACEUTICAL, published 2025).

B1: S009-F6-62.5 (antibody, human IgG1, kappa, V domains shown)
VH: QVQLQQPGTELVKPGASVKLSCRASGYTFTAYWMHWVKQRPGQGLEWIGNINPSNGGTDFNEKFKSKATLTVDKSSSTAYMQLSSLTSEDSAVYYCARGRGYFDVWGTGTTVTVSS
VL: DILLTQSPAILSVSPGERVSFSCRASKNIGTSIHWYQQRTNGSPRLLIKYASESISGIPSRFSGSGSGTDFTLNINSVESEDIADYYCQQSNSWPTLTFGAGTKLELKR
notes: human-murine chimeric antibody, human IgG1/kappa constant regions
B2: S009-F6-76.1 (antibody, human IgG1, kappa, V domains shown)
VH: QVQLQQSGPELVKPGASVKISCKASGYTFTDYYINWVKQRPGQGLEWIGWIFPGRGSTFYYEKFKGKATLTVDKSSSTAYMLLSSLTSEDSAVYFCARRGDSAGYEDLDYWGQGTSVTVSS
VL: NIVMTQSPKFMSMSVGERVTLSCKASENVVTYVSWYQQKPKQSPKLLIYGASKRYTGVPDRFTGSGSATDFTLTISSVQAEDLGDYHCGQSYSYPYTFGGGTKLEIKR
notes: as for B1
B3: S009-F4-94.15 (antibody, human IgG1, kappa, V domains shown)
VH: QVQLHQPGAELVRPGSSVKLSCKASGYTFTSYWVHWVQQRPRQGLEWIGNIDPSDSEIHYNQKFKDKATLTVDKSSSTAYIHLSRLTSEDSAIYYCVRGGVPWFAYWGQGTLVTVSA
VL: QIVLTQSPAIMSASPGEKVTLTCSASSSVSSTYLYWFQQKPGSSPKVWIYSTSNLASGVPARFSGSGSGTSYSLTISSMEAEDAASYFCHQWISYPYTFGGGTKLEIKR
notes: as for B1
B4: S009-F2-56.12 (antibody, human IgG1, kappa, V domains shown)
VH: DVQLQESGPGMVKPSQSLSLTCTVTGYSITSGYDWHWIRHFPGNKLEWMGYISYSGSTNYNPSLKSRISITHDTSKNHFFLKLKSVTTEDTATYYCARGTGPDYWGQGTTLTVSS
VL: DIVMTQSQKFMSTSVGDRVSITCKASQNVRTAVAWYQQKPGQSPKALIHLPSNRHTGVPDRFTGSGSGTDFTLTISNVQSEDLADYFCLQHWNYPLTFGGGTKLEIKR
notes: as for B1
B5: S009-F3-63.5 (antibody, human IgG1, kappa, V domains shown)
VH: QVQLQQSGAELVRPGASVTLSCKASGYTFTDYEMHWVKQTPVHGLEWIGGIDPETGDTAYNQQFKGKAILTADRSSSTAYMELRSLTSEDSAVYYCTNYASSREDYWGQGTTLTVSS
VL: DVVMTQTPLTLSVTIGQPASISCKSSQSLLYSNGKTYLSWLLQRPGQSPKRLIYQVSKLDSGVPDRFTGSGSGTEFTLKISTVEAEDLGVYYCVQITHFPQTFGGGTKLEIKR
notes: as for B1
B6: S009-F6-62.5 (antibody, human IgG1, kappa, V domains shown)
VH: QVQLQQPGTELVKPGASVKLSCRASGYTFTAYWMHWVKQRPGQGLEWIGNINPSNGGTDFNEKFKSKATLTVDKSSSTAYMQLSSLTSEDSAVYYCARGRGYFDVWGTGTTVTVSS
VL: DILLTQSPAILSVSPGERVSFSCRASKNIGTSIHWYQQRTNGSPRLLIKYASESISGIPSRFSGSGSGTDFTLNINSVESEDIADYYCQQSNSWPTLTFGAGTKLELKR
notes: Human-murine chimeric antibody, human IgG1/kappa constant regions
B7: Tab106 (YP218, hIgG1) (antibody, V domains shown)
VH: QQQLEESGGGLVKPEGSLTLTCKASGFDLGFYFYACWVRQAPGKGLEWIACIYTAGSGSTYYASWAKGRFTISKASSTTVTLQMTSLAAADTATYFCARSTANTRSTYYLNLWGPGTLVTVSS
VL: DVVMTQTPASVSEPVGGTVTIKCQASQRISSYLSWYQQKPGQRPKLLIFGASTLASGVPSRFKGSGSGTEYTLTISDLECADAATYYCQSYAYFDSNNWHAFGGGTEVVVRT
notes: Control antibody: YP218 VH and VL recombined into human IgG1 CH and CL expression vectors; also called YP218 human IgG1 antibody
B8: Tab106 (YP218, hIgG1) (antibody, V domains shown)
VH: QQQLEESGGGLVKPEGSLTLTCKASGFDLGFYFYACWVRQAPGKGLEWIACIYTAGSGSTYYASWAKGRFTISKASSTTVTLQMTSLAAADTATYFCARSTANTRSTYYLNLWGPGTLVTVSS
VL: DVVMTQTPASVSEPVGGTVTIKCQASQRISSYLSWYQQKPGQRPKLLIFGASTLASGVPSRFKGSGSGTEYTLTISDLECADAATYYCQSYAYFDSNNWHAFGGGTEVVVRT
notes: Control: YP218 VH and VL recombined into human IgG1 CH and CL expression vectors; also called YP218 human IgG1 antibody

Experiments:
[1] = target: T1, human MSLN-FL-his protein (human, UniProt Q13421 296-580); assay: competitive ELISA; row Tab106
T1 construct: made in HEK293E cells, purified on nickel column; also called hMSLN-FL-his; human MSLN full-length protein; not shown: His tag
T1 sequence (Q13421 other isoform, or with tags, fused parts or gaps): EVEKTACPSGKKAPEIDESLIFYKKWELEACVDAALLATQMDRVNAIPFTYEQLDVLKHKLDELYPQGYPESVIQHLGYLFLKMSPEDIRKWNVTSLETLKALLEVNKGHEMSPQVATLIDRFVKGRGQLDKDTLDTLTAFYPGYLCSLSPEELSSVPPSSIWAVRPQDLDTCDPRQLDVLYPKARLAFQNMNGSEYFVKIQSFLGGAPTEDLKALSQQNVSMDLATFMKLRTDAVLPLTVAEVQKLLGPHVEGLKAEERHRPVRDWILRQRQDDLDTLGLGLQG

[2] = target: T1, human MSLN-FL-his protein; assay: competitive ELISA; row Tab142
Method: (§1) In order to identify antigen-binding sites of antibodies, MSLN chimeric antibodies were grouped using competitive ELISA.
(§2) The chimeric antibodies were diluted to 2 μg/mL with PBS and allowed to coat 96-well high-adsorption ELISA plates at 50 μL/well. After the plates were coated at 4° C. overnight, 250 μL of a blocking buffer (PBS containing 2% (w/w) BSA) was added for two hours of blocking at room temperature. 40 μg/mL of the antibodies to be tested were added, and then the human MSLN-FL-His protein with an EC₈₀ concentration corresponding to each of the antibodies to be tested was added for incubation for 2 h. The plates were washed 5 times with PBS, an HRP-labeled anti-His secondary antibody (purchased from Genescript, Cat. No. A00612) was then added for incubation for 1 h, and the plates were washed 5 times again. A TMB substrate was added at 50 μL/well, and after 10 minutes of incubation at room temperature, a stop solution (1.0 M HCl) was added at 50 μL/well. OD₄₅₀ nm values were read using an ELISA plate reader (Insight, purchased from PerkinElmer), and the competition rate between the antibodies was calculated according to the OD₄₅₀ nm values using a formula.

[3] = target: T1, human MSLN-FL-his protein; assay: competitive ELISA; row F3-63.5
Method: as §1, §2

[4] = target: T1, human MSLN-FL-his protein; assay: competitive ELISA; row F6-62.5
Method: as §1, §2

[5] = target: T1, human MSLN-FL-his protein; assay: competitive ELISA; row F6-76.1
Method: as §1, §2

[6] = target: T1, human MSLN-FL-his protein; assay: competitive ELISA; row F2-56.12
Method: as §1, §2

[7] = target: T1, human MSLN-FL-his protein; assay: competitive ELISA; row F4-94.15
Method: as §1, §2

[8] = target: T1, human MSLN-FL-his protein; assay: SPR (Biacore), antibody captured on Protein A chip;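 further: measured at 25 °C, analyte injected 240 s in five twofold dilutions from 200 nM, dissociation up to 600 s, double-referenced, fitted with Langmuir 1:1 model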
Method: The flow cell was set at 25° C. The sample block was set at 16° C. Both were pretreated with the running buffer. In each cycle, first, the antibody to be tested was captured using the Protein A chip, and then a single concentration of human MSLN-FL-his protein was injected. […] The association was determined by injecting different concentrations of human MSLN-FL-his in solution for 240 s on end, wherein the flow rate was 30 μL/min, and the protein was diluted in a 1:1 dilution ratio from 200 nM (see detailed results for actual concentrations tested) to obtain 5 concentrations in total. The dissociation phase was monitored for up to 600 s and triggered by switching from the sample solution to the running buffer. The surface was regenerated by washing with 10 mM glycine solution (pH 1.5) at a flow rate of 30 μL/min for 30 s. The difference in bulk refractive index was corrected by subtracting the responses obtained from the goat anti-human Fc surface. Blank injections were also subtracted (=double reference). To calculate the apparent KD and other kinetic parameters, the Langmuir 1:1 model was used.

[9] = target: T2, human MSLN-FL-his protein (human, UniProt Q13421 296-580); assay: ELISA, coated antigen; antibody 1 nM
T2 construct: also called human MSLN full-length protein; hMSLN-FL-his; not shown: His tag

[10] = target: T2, human MSLN-FL-his protein; assay: ELISA, coated antigen; antibody 10 nM
Method: (§3) The plate was sealed with a plastic film and incubated at 4° C. overnight. The next day, the plate was washed twice with PBST, and a blocking buffer [PBS+2% (w/w) BSA] was added for blocking at room temperature for 2 h. The blocking buffer was discarded, and a chimeric antibody or negative control antibody serially diluted from 100 nM was added at 50 μL/well. After incubation at 37° C. for 2 h, the plate was washed 3 times with PBST. […] After incubation at 37° C. for 2 h, the plate was washed 5 times with PBST. A TMB substrate was added at 50 μL/well for incubation at room temperature for 5-10 min, and then a stop solution (1.0 N HCl) was added at 50 μL/well.

[11] = target: T2, human MSLN-FL-his protein; assay: ELISA, coated antigen; antibody 0.1 nM
Method: as §3

[12] = target: T2, human MSLN-FL-his protein; assay: ELISA, coated antigen; antibody 100 nM
Method: as §3

[13] = target: T2, human MSLN-FL-his protein; assay: ELISA, coated antigen; antibody 0.01 nM
Method: as §3

[14] = target: T2, human MSLN-FL-his protein; assay: ELISA, coated antigen; antibody 0.001 nM
Method: as §3

[15] = target: T2, human MSLN-FL-his protein; assay: ELISA, coated antigen; antibody 0.0001 nM
Method: as §3

[16] = target: T2, human MSLN-FL-his protein; assay: ELISA, coated antigen; no antibody (blank, column 'none')
Method: as §3

[17] = target: T3, human MSLN-R2-his protein (human, UniProt Q13421 391-486); assay: ELISA, coated antigen; antibody 1 nM
T3 construct: also called human MSLN-R2 protein; hMSLN-R2-his; not shown: His tag
T3 sequence (Q13421 other isoform, or with tags, fused parts or gaps): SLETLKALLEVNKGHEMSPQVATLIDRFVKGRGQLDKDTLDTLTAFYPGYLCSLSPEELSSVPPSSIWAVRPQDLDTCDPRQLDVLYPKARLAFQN

[18] = target: T3, human MSLN-R2-his protein; assay: ELISA, coated antigen; antibody 10 nM
Method: as §3

[19] = target: T3, human MSLN-R2-his protein; assay: ELISA, coated antigen; antibody 0.1 nM
Method: as §3

[20] = target: T3, human MSLN-R2-his protein; assay: ELISA, coated antigen; antibody 100 nM
Method: as §3

[21] = target: T3, human MSLN-R2-his protein; assay: ELISA, coated antigen; antibody 0.01 nM
Method: as §3

[22] = target: T3, human MSLN-R2-his protein; assay: ELISA, coated antigen; antibody 0.001 nM
Method: as §3

[23] = target: T3, human MSLN-R2-his protein; assay: ELISA, coated antigen; antibody 0.0001 nM
Method: as §3

[24] = target: T3, human MSLN-R2-his protein; assay: ELISA, coated antigen; no antibody (blank, column 'none')
Method: as §3

[25] = target: T4, human MSLN-R3-his protein (human, UniProt Q13421 487-598); assay: ELISA, coated antigen, antibody 1 nM
T4 construct: Made in HEK293E cells, purified on nickel column; also called hMSLN-R3-his; human MSLN-R3 protein; not shown: His tag
T4 sequence (Q13421 495-606): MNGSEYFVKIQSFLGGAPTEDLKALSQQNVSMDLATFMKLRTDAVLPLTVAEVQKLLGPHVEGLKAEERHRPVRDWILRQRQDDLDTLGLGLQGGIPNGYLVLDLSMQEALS

[26] = target: T4, human MSLN-R3-his protein; assay: ELISA, coated antigen, antibody 10 nM
Method: as §3

[27] = target: T4, human MSLN-R3-his protein; assay: ELISA, coated antigen, antibody 0.1 nM
Method: as §3

[28] = target: T4, human MSLN-R3-his protein; assay: ELISA, coated antigen, antibody 100 nM
Method: as §3

[29] = target: T4, human MSLN-R3-his protein; assay: ELISA, coated antigen, antibody 0.01 nM
Method: as §3

[30] = target: T4, human MSLN-R3-his protein; assay: ELISA, coated antigen, antibody 0.001 nM
Method: as §3

[31] = target: T4, human MSLN-R3-his protein; assay: ELISA, coated antigen, antibody 0.0001 nM
[32] = target: T4, human MSLN-R3-his protein; assay: ELISA, coated antigen, no antibody (blank)
Method: as §3

Row | Binder | competition rate [1] [%] | competition rate [2] [%] | competition rate [3] [%] | competition rate [4] [%] | competition rate [5] [%] | competition rate [6] [%] | competition rate [7] [%] | Kd [8] [nM] | koff [8] [s⁻¹] | kon [8] [M⁻¹ s⁻¹] | also measured
1 | B1 | 30 | 28 | -17 | -76 | 57 | -143 | 25 | 120 | 0.0173 | 144000 | –
2 | B2 | 27 | 39 | 2 | 60 | 98 | 99 | 94 | 10.1 | 0.000369 | 36700 | –
3 | B3 | 19 | 26 | -10 | -262 | 99 | 101 | 100 | 1.2 | 0.000185 | 154000 | –
4 | B4 | 1 | 3 | -24 | -233 | 93 | 97 | 87 | 43.1 | 0.00312 | 72400 | –
5 | B5 | 15 | 2 | 58 | -366 | -3 | -77 | 11 | 105 | 0.000478 | 4560 | –
6 | B6 | – | – | – | – | – | – | – | – | – | – | OD450 [9]: 3.13 OD450; OD450 [10]: 3.11 OD450; OD450 [11]: 2.45 OD450; OD450 [12]: 3.22 OD450; OD450 [13]: 0.94 OD450; OD450 [14]: 0.27 OD450; OD450 [15]: 0.05 OD450; OD450 [16]: 0.05 OD450
7 | B7 | – | – | – | – | – | – | – | – | – | – | OD450 [17]: 0.3 OD450; OD450 [18]: 1.39 OD450; OD450 [19]: 0.08 OD450; OD450 [20]: 2.07 OD450; OD450 [21]: 0.06 OD450; OD450 [22]: 0.06 OD450; OD450 [23]: 0.06 OD450; OD450 [24]: 0.07 OD450
8 | B8 | – | – | – | – | – | – | – | – | – | – | OD450 [25]: 1.57; OD450 [26]: 1.69; OD450 [27]: 0.88; OD450 [28]: 1.79; OD450 [29]: 0.18; OD450 [30]: 0.06; OD450 [31]: 0.05; OD450 [32]: 0.07
